Experimental data taken from the emibetuzumab library of Makowski et al. (2022).

B1: VH:VL chains; a variant is named by its letters at X, in order (parent)
chain 1: QVQLVQSGAEVKKPGASVKVSCKASGYTFTDYXMHWVRQAPGQGLEWMGXVNPNXXXTTYNQKFEGRVTMTTDTSTSTAYMELRSLRSDDTAVYYCARXNXLDXWGQGTTVTVSS
chain 2: DIQMTQSPSSLSASVGDRVTITCSVSSSVSSIYLHWYQQKPGKAPKLLIYSTSNLASGVPSRFSGSGSGTDFTLTISSLQPEDFATYYCQVYSGYPLTFGGGTKVEIK

Variants of: B1
Assay: yeast display scFab, FACS + sequencing
Method in brief: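 For the non-specific binding call, a heavy-chain CDR mutant scFab library on the yeast surface was FACS-sorted and samples from two replicates were deep sequenced. Cells were labelled with anti-Myc and either biotinylated ovalbumin (260 μg/mL in PBSB, 3 h, room temperature) or soluble membrane proteins (130 μg/mL, 20 min on ice), with gates on the top 25% and bottom 10% of binders. With membrane protein and ovalbumin samples pooled, a sequence in ≥3 of 4 positive samples and no negatives was scored positive, and the converse rule scored negatives.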

| Variant | non-specific binding call |
| --- | --- |
| STEGGSVY | no binding |
| VTAGDSAD | no binding |
| VRTRSFGA | binds |
| SRTRGFVV | binds |
| YTEGDFAV | no binding |
| YRTRAAWD | binds |
| ATAGSAAV | no binding |
| VTAGDDVA | no binding |
| VTAGDDVY | no binding |
| YRTRDSVD | binds |
| YRTRDSVA | no binding |
| YRTRDDLY | no binding |
| STATADWV | no binding |
| FTEEGAVD | no binding |
| YRTRDDVV | no binding |
| YRTRDDVY | no binding |
| ATGEADAS | no binding |
| YTGEADAS | no binding |
| ATGANAGD | no binding |
| STGEDDVY | no binding |
| ATGGAAGD | no binding |
| YRTRGAVD | binds |
| SRTRDAGD | no binding |

| Variant | non-specific binding call |
| --- | --- |
| FTGEDDVY | no binding |
| YTERNFGV | binds |
| YRTRGASD | binds |
| VRTRGDGA | binds |
| YTEKGVGV | binds |
| YTAGSDGV | no binding |
| YTAGSDGA | no binding |
| YRTRGSLY | binds |
| VTGANDWV | no binding |
| VRTRSSLD | binds |
| YRTRDSGV | binds |
| VRTRGSWD | binds |
| VTAEDFGV | no binding |
| FTGEADAS | no binding |
| YTGEGDGV | no binding |
| VTGEDAVV | no binding |
| YRTRSAAA | binds |
| YRTRSAAV | binds |
| VRTRAAVD | binds |
| FTGGASGV chain 1 V111I | no binding |
| VTETGDSV | no binding |
| YTATGFAV | binds |
| FRTRDFLV | binds |

| Variant | non-specific binding call |
| --- | --- |
| FRTRSSGV | binds |
| VTGEDSGV | no binding |
| YRTRSSAV | binds |
| YTAAADLV | binds |
| VTGEDDGD | no binding |
| VTGEDDGS | no binding |
| ATAGSDGV | no binding |
| YTARDVGV | binds |
| FTEGDSGY | no binding |
| DTAESSSF | no binding |
| STAESDVA | no binding |
| FRTRDAAA | binds |
| YTEAADGA | no binding |
| FRTRDAGD | no binding |
| FTETGAGD | no binding |
| YRTRSSWD | binds |
| SRTRGFGS | binds |
| YTAGSALV | no binding |
| VTERDDAV | no binding |
| DTERGSLV | no binding |
| VTGGDDGA | no binding |
| DTAEDFGV | no binding |
| VTEENDGY | no binding |

| Variant | non-specific binding call |
| --- | --- |
| VTERSALD | binds |
| DTAESDLD | no binding |
| FRTRDSLD | binds |
| YTEEAAVD | no binding |
| FTEEGDGV | no binding |
| FTEEGDGA | no binding |
| VRTRSSGV | binds |
| YTERGFGV | no binding |
| ATAGSASD | no binding |
| YTERGDAV | no binding |
| DTEEGDVA | no binding |
| YTERGDVY | no binding |
| YTERGDVD | no binding |
| VTEGDSGV | no binding |
| VTEGDAGD | no binding |
| VTEGDAGA | no binding |
| YRTKGAAD | binds |
| YRTRDSLD | no binding |
| STAESDLD | no binding |
| ATGANSLD | no binding |
| VTEGGDAA | no binding |
| FRTKGAAD | binds |
| VTEEGSSV | no binding |

| Variant | non-specific binding call |
| --- | --- |
| STEASYLS | no binding |
| VTGEDAGA | no binding |
| VTGEDAGD | no binding |
| VTGEDAGS | no binding |
| FRTKSDLA | no binding |
| YRTRGAWF | binds |
| YRTRGAWA | binds |
| DTAGDAAV | no binding |
| DTGEADAS | no binding |
| VTAGDAGD | no binding |
| FRTRDSGY chain 1 V68I | binds |
| YTEGDDGV | no binding |
| YTEGDDGA | no binding |
| YTEGDDGD | no binding |
| FTGGDALA | no binding |
| ARTKGSGY | binds |
| FRTKGSGD | binds |
| FTETGFGA | binds |
| VTGEDDWD | no binding |
| VTGEDDWY | no binding |
| VTGEDDWV | no binding |
| YTGATAGA | binds |
| STGEADAS | no binding |
